Source: patent publication US20240139329A1 (CALIFORNIA INSTITUTE OF TECHNOLOGY, published 2024)

Key:
[1] = biological target: T1, human low-density lipoprotein receptor-related protein 6 (LRP6), on cells (human, UniProt O75581 20-1613); experiment: cell microarray screen hit (membrane)
T1 construct: also called hLRP6
Protocol: After these controls, the six-capsid pool was tested in a full screen of approximately 6400 proteins, including 6000 human plasma membrane proteins and secreted and cell surface-tethered proteins, as well as approximately 400 heterodimers. […] To assign these hits to specific capsids, follow-up deconvolution screens were performed with each individual capsid from the pool (FIG. 12E). DNA oligos for the 22 identified hits, as well as the positive control CD86, were affixed in duplicate locations to new slides. A negative control condition with no AAV analyte and a positive control condition with CTLA4-Fc (CD86 binder) were also included.

[2] = biological target: T2, human interleukin 3 (IL3), expressed on microarray cells (human, UniProt P08700 20-152); experiment: cell microarray screen hit (title of Table 4)
T2 construct: also called hIL3
T2 sequence: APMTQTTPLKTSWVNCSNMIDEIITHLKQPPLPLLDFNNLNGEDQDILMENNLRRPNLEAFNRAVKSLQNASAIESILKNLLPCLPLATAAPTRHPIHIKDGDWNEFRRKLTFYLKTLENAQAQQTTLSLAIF

[3] = biological target: T3, Mouse SCA1 (LY6A), on cells (mouse, UniProt P05533 27-112); experiment: cell microarray, individual capsids, anti-AAV9 detection
T3 construct: whole, on cells; also called mouse LY6A
T3 sequence: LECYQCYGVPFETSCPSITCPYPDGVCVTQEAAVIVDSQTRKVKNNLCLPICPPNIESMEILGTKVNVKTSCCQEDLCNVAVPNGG
Protocol: To enable higher-throughput screening, the six capsids were tested as a pool. Pooled testing required additional dosage optimizing, first for the individual and then for the collective background binding levels of the included capsids (Table 5).

[4] = biological target: T4, human GP2 (AA 1-518) triple tagged with Fc-Myc-6×His (human, UniProt P55259 29-518); experiment: validated interaction (cell culture potency assay and/or SPR)
T4 construct: also called human GP2-Fc; not shown: Fc and Myc tags

[5] = biological target: T5, mouse LRP6 extracellular domain (AA20-1366) tagged with 6×His tag (mouse, UniProt O88572 20-1366); experiment: pull-down, His-tagged bait on Ni-NTA, AAV prey, Western blot (FIG. 21)
T5 construct: also called full length extracellular domain of mouse LRP6
T5 sequence: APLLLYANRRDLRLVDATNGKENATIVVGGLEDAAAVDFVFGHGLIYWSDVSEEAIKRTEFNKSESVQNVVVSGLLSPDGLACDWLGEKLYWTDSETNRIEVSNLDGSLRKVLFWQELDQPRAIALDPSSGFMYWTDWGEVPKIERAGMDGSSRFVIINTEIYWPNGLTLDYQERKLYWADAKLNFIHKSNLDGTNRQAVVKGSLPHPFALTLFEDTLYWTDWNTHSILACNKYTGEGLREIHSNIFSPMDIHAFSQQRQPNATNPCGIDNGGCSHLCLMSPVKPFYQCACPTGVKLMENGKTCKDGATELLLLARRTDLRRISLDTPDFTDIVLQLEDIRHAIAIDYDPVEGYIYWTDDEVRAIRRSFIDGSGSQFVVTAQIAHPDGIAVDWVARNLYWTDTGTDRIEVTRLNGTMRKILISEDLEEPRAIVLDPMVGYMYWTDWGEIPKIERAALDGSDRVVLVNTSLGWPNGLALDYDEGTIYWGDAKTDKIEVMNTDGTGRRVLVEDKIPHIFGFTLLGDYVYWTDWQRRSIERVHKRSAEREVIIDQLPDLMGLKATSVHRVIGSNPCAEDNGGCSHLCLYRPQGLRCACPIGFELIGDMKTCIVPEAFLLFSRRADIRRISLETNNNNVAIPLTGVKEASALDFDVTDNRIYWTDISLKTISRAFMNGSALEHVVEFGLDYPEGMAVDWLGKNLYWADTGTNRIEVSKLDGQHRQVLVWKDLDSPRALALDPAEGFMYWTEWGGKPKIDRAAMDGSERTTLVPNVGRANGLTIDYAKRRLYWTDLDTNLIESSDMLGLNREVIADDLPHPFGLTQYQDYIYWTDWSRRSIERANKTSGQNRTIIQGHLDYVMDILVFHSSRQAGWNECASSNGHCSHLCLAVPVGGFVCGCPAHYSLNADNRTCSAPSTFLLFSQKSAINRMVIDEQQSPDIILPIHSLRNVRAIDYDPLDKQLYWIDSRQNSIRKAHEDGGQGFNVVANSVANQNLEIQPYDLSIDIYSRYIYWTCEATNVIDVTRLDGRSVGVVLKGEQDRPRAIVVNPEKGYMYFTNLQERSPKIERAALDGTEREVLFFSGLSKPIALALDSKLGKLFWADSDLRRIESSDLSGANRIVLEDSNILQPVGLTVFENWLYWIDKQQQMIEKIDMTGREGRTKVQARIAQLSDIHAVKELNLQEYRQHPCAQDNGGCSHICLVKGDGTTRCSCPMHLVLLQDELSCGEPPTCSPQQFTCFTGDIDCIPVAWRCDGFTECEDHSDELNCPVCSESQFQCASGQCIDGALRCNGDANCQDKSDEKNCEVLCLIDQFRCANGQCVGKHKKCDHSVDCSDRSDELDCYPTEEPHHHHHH

[6] = biological target: T6, Human Adeno-Associated Virus Receptor (AAVR) PKD2 domain (AA 401-498) tagged with 6×His (human, UniProt Q8IZA0 401-498); experiment: as above
T6 construct: range 401-498; also called human AAVR PDK2 domain
T6 sequence: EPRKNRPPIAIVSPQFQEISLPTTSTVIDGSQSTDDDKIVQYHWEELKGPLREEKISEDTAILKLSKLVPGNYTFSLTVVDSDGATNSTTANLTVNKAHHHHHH

[7] = biological target: T1, human low-density lipoprotein …; experiment: cell microarray screen

T4 sequence (P55259 29-518): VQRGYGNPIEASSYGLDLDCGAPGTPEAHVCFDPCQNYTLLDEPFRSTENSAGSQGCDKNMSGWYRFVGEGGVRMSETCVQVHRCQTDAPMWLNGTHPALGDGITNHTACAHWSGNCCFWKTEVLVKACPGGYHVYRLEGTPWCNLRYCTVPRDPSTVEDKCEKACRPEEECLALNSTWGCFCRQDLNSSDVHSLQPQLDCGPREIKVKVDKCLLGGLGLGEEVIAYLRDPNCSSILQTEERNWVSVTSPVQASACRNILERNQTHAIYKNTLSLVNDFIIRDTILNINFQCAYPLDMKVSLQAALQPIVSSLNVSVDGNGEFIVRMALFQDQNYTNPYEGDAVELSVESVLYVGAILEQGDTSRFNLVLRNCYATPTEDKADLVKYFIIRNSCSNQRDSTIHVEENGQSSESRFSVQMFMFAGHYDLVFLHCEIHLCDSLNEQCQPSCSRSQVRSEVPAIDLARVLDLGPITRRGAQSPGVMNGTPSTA

Binder | binding result [1] | binding result [2] | binding result [3] | binding result [4] | binding result [5] | binding result [6] | binding result [7]
AAV9-X1.1 (other, also called AAV-X1.1; X1B10) MAADGYLPDWLEDNLSEGIREWWALKPGAPQPKANQQHQDNARGLVLPGYKYLGPGNGLDKGEPVNAADAAALEHDKAYDQQLKAGDNPYLKYNHADAEFQERLKEDTSFGGNLGRAVFQAKKRLLEPLGLVEEAAKTAPGKKRPVEQSPQEPDSSAGIGKSGAQPAKKRLNFGQTGDTESVPDPQPIGEPPAAPSGVGSLTMASGGGAPVADNNEGADGVGSSSGNWHCDSQWLGDRVITTSTRTWALPTYNNHLYKQISNSTSGGSSNDNAYFGYSTPWGYFDFNRFHCHFSPRDWQRLINNNWGFRPKRLNFKLFNIQVKEVTDNNGVKTIANNLTSTVQVFTDSDYQLPYVLGSAHEGCLPPFPADVFMIPQYGYLTLNDGSQAVGRSSFYCLEYFPSQMLRTGNNFQFSYEFENVPFHSSYAHSQSLDRLMNPLIDQYLYYLSRTIDGAATKNQTLKFSVAGPSNMAVQGRNYIPGPSYRQQRVSTTVTQNNNSEFAWPGASSWALNGRNSLMNPGPAMASHKEGEDRFFPLSGSLIFGKQGTGRDNVDADKVMITNEEEIKTTNPVATESYGQVATNHQSAQGNNTRSVAQAQTGWVQNQGILPGMVWQDRDVYLQGPIWAKIPHTDGNFHPSPLMGGFGMKHPPPQILIKNTPVPADPPTAFNKDKLNSFITQYSTGQVSVEIEWELQKENSKRWNPEIQYTSNYYKSNNVEFAVNTEGVYSEPRPIGTRYLTRNL | binds | binds | no binding | binds | binds | binds | 
AAV.CAP-Mac (other, also called CAP-C1) MAADGYLPDWLEDNLSEGIREWWALKPGAPQPKANQQHQDNARGLVLPGYKYLGPGNGLDKGEPVNAADAAALEHDKAYDQQLKAGDNPYLKYNHADAEFQERLKEDTSFGGNLGRAVFQAKKRLLEPLGLVEEAAKTAPGKKRPVEQSPQEPDSSAGIGKSGAQPAKKRLNFGQTGDTESVPDPQPIGEPPAAPSGVGSLTMASGGGAPVADNNEGADGVGSSSGNWHCDSQWLGDRVITTSTRTWALPTYNNHLYKQISNSTSGGSSNDNAYFGYSTPWGYFDFNRFHCHFSPRDWQRLINNNWGFRPKRLNFKLFNIQVKEVTDNNGVKTIANNLTSTVQVFTDSDYQLPYVLGSAHEGCLPPFPADVFMIPQYGYLTLNDGSQAVGRSSFYCLEYFPSQMLRTGNNFQFSYEFENVPFHSSYAHSQSLDRLMNPLIDQYLYYLSRTINGSGQNQQTLKFSVAGPSNMAVQGRNYIPGPSYRQQRVSTTVTQNNNSEFAWPGASSWALNGRNSLMNPGPAMASHKEGEDRFFPLSGSLIFGKQGTGRDNVDADKVMITNEEEIKTTNPVATESYGQVATNHQSAQLNTTKPIAQAQTGWVQNQGILPGMVWQDRDVYLQGPIWAKIPHTDGNFHPSPLMGGFGMKHPPPQILIKNTPVPADPPTAFNKDKLNSFITQYSTGQVSVEIEWELQKENSKRWNPEIQYTSNYYKSNNVEFAVNTEGVYSEPRPIGTRYLTRNL |  | binds | no binding |  | binds | binds | binds
